Laboratory results: US20260224711A1, “ENHANCING BRAIN PERMEABILITY AND ACTIVITY OF GLUCOSYLCERAMIDASE (GCase) PROSNA FOR NEURODEGENERATIVE DISEASES” (NORTHWESTERN UNIVERSITY, priority 2023, published 2026)
“Also recorded” adds a separate entry of the source. Where two headings read alike, the source gives them in different places.

B1: Bivalent ProSNA: GCase protein functionalized with the bivalent ligand (folate modified transferrin aptamer), roughly 14-18 ligands per protein (conjugate, UniProt P04062 40-536, looked up)
Lysosomal acid …: ARPCIPKSFGYSSVVCVCNATYCDSFDPPTFPALGTFSRYESTRSGRRMELSMGPIQANHTGTGLLLTLQPEQKFQKVKGFGGAMTDAAALNILALSPPAQNLLLKSYFSEEGIGYNIIRVPMASCDFSIRTYTYADTPDDFQLHNFSLPEEDTKLKIPLIHRALQLAQRPVSLLASPWTSPTWLKTNGAVNGKGSLKGQPGDIYHQTWARYFVKFLDAYAEHKLQFWAVTAENEPSAGLLSGYPFQCLGFTPEHQRDFIARDLGPTLANSTHHNVRLLMLDDQRLLLPHWAKVVLTDPEAAKYVHGIAVHWYLDFLAPAKATLGETHRLFPNTMLFASEACVGSKFWEQSVRLGSWDRGMQYSHSIITNLLYHVVGWTDWNLALNPEGGPNWVRNFVDSPIIVDITKDTFYKQPMFYHLGHFSKFIPEGSQRVGLVASQKNDLDAVALMHPDGSAVVVVLNRSSKDVPLTIKDPAVGFLETISPGYSIHTYLWRRQ
modifications: folate-modified transferrin aptamer shell, 14-18 ligands
notes: GCase protein functionalized with the bivalent ligand (folate modified transferrin aptamer), roughly 14-18 ligands per protein
B2: Univalent ProSNA: GCase protein functionalized with only the transferrin aptamer (conjugate, UniProt P04062 40-536, looked up)
Lysosomal acid …: ARPCIPKSFGYSSVVCVCNATYCDSFDPPTFPALGTFSRYESTRSGRRMELSMGPIQANHTGTGLLLTLQPEQKFQKVKGFGGAMTDAAALNILALSPPAQNLLLKSYFSEEGIGYNIIRVPMASCDFSIRTYTYADTPDDFQLHNFSLPEEDTKLKIPLIHRALQLAQRPVSLLASPWTSPTWLKTNGAVNGKGSLKGQPGDIYHQTWARYFVKFLDAYAEHKLQFWAVTAENEPSAGLLSGYPFQCLGFTPEHQRDFIARDLGPTLANSTHHNVRLLMLDDQRLLLPHWAKVVLTDPEAAKYVHGIAVHWYLDFLAPAKATLGETHRLFPNTMLFASEACVGSKFWEQSVRLGSWDRGMQYSHSIITNLLYHVVGWTDWNLALNPEGGPNWVRNFVDSPIIVDITKDTFYKQPMFYHLGHFSKFIPEGSQRVGLVASQKNDLDAVALMHPDGSAVVVVLNRSSKDVPLTIKDPAVGFLETISPGYSIHTYLWRRQ
modifications: transferrin aptamer DNA shell
B3: PEGylated protein: GCase after PEGylation, comparator in the activity assay (conjugate, UniProt P04062 40-536, looked up)
Lysosomal acid …: ARPCIPKSFGYSSVVCVCNATYCDSFDPPTFPALGTFSRYESTRSGRRMELSMGPIQANHTGTGLLLTLQPEQKFQKVKGFGGAMTDAAALNILALSPPAQNLLLKSYFSEEGIGYNIIRVPMASCDFSIRTYTYADTPDDFQLHNFSLPEEDTKLKIPLIHRALQLAQRPVSLLASPWTSPTWLKTNGAVNGKGSLKGQPGDIYHQTWARYFVKFLDAYAEHKLQFWAVTAENEPSAGLLSGYPFQCLGFTPEHQRDFIARDLGPTLANSTHHNVRLLMLDDQRLLLPHWAKVVLTDPEAAKYVHGIAVHWYLDFLAPAKATLGETHRLFPNTMLFASEACVGSKFWEQSVRLGSWDRGMQYSHSIITNLLYHVVGWTDWNLALNPEGGPNWVRNFVDSPIIVDITKDTFYKQPMFYHLGHFSKFIPEGSQRVGLVASQKNDLDAVALMHPDGSAVVVVLNRSSKDVPLTIKDPAVGFLETISPGYSIHTYLWRRQ
modifications: PEGylated

How the values were obtained:
GCase ProSNA constructs = molecular target: T1, GCase ProSNA constructs (Homo sapiens, UniProt P04062); details: co-incubation / co-assembly of activator with GCase ProSNA construct
T1 sequence (P04062 40-536): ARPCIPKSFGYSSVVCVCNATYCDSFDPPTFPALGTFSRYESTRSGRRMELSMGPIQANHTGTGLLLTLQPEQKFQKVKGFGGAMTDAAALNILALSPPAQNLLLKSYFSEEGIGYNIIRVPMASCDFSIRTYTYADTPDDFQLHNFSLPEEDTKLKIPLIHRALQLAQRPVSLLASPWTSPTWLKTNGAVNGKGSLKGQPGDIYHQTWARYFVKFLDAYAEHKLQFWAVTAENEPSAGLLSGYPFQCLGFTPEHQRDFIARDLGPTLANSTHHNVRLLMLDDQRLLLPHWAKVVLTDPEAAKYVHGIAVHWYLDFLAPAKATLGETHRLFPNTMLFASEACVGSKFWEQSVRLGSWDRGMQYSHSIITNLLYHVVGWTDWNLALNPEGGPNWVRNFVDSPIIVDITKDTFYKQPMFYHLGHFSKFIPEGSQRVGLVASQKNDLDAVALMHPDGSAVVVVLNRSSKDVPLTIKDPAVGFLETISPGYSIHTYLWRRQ
Text: Next, the assay is repeated with generated GCase ProSNA constructs to investigate whether some of the activity lost during activation can be recovered.

native GCase protein = native GCase protein (Homo sapiens, UniProt P04062); details: GCase 1.9 mg/mL, quetiapine introduced 30 minutes prior to substrate, FIG. 10
Protocol: The purpose behind enzyme replacement therapy (ERT) is to replace protein that is either absent or dysregulated. […] This assay was completed using the same fluorometric kit described above, with quetiapine being introduced 30 minutes prior to the GCase substrate.

[1] = tested on: α-synuclein protein aggregates; details: cited from earlier work
[2] = tested on: neurons (dopaminergic), astrocytes, and microglia; test: flow cytometry uptake into neuronal cell types; type: cell-based
Text: The ability of the GCase ProSNA constructs to be taken up into cells will be assessed. To investigate their uptake potential, flow cytometry is used as a method for determining the percent uptake of the constructs compared to control groups (unmodified GCase protein, linear bivalent DNA ligand, GCase-Transferrin aptamer, and GCase-Folic Acid). Constructs are synthesized as described previously, including the fluorescent tagging the GCase protein core as well as including a Cyanine3 dye into the aptamer sequence (Folate-SEQ ID NO: 1-Cy3-DBCO dT). Once prepared, the constructs are used to treat different mono-populations of different neuronal cell types, including neurons (dopaminergic), astrocytes, and microglia, to evaluate their uptake ability. In all cases, a live dead stain is used to determine percent uptake in viable populations. Furthermore, uptake across different time points is assessed to determine the rates at which the constructs are endocytosed and processed by the different cell types.

GCase = molecular target: T2, GCase (Homo sapiens, UniProt P04062); test: fluorometric GCase activity assay kit (Abcam) on GCase constructs; type: biochemical; details: constructs at 0.24 mg/mL, GCase substrate 30 minutes at 37° C., FIG. 9; for protein activity after functionalization, compared with unmodified GCase: fluorescence Ex/Em=360/445
T2 construct: purchased GenScript; host or cells: CHO expression system
T2 sequence (P04062 40-536): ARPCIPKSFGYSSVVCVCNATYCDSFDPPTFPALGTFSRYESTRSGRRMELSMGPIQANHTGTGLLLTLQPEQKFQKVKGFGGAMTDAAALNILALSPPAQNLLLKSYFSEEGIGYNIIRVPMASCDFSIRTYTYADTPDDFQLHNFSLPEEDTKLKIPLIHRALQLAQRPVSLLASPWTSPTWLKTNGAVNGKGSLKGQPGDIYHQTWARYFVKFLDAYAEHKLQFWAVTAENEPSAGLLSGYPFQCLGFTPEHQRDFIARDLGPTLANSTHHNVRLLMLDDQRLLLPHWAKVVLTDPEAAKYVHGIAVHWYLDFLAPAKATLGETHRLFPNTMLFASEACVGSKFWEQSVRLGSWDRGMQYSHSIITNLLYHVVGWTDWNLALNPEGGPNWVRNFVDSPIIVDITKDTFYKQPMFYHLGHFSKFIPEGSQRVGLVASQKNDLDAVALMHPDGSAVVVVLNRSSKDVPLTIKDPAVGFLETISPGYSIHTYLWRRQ
Protocol: Upon interaction with active GCase, this substrate releases a fluorophore detectable using a plate reader at Ex/Em=360/445 nm.
Following the synthesis process, a comprehensive investigation into the impact of synthesis on protein activity was conducted. To assess this, we employed a fluorometric GCase activity assay kit (Abcam), using a synthetic substrate-4-Methylumbelliferyl β-D-glucopyranoside. Upon interaction with active GCase, this substrate releases a fluorophore detectable using a plate reader at Ex/Em=360/445 nm. The focus extended to evaluating the effects of PEGylation on GCase, along with modifications involving univalent (sole presence of the transferrin aptamer) or bivalent (co-presence of both transferrin and folate) DNA ligands. By using the protocol outlined in this assay, the aim was to understand and analyze the variations in protein activity resulting from these modifications. Briefly, GCase constructs (all at 0.24 mg/mL) were reacted with GCase substrate for 30 minutes at 37° C. They were then measured for fluorescence intensity at Ex/Em=360/445. […] This was a key finding as PEGylation is currently one of the most used methods to improve protein delivery.

[3] = mouse, in vivo
Protocol: Fluorescently labeled constructs are administered to mice by different routes of injection including intravenously by way of retroorbital or tail vein injection, as well as intrathecally. At set time points the mice are imaged using IVIS to track the biodistribution patterns.

[4] = tested on: Human endothelial cells cultured alone or with microglial and astrocyte cells on a transwell membrane
Protocol: The ability of the construct to pass the BBB is also assessed. […] To investigate this an in vitro transwell model of transcytosis is used. Human endothelial cells are cultured alone or in concert with microglial and astrocyte cells on a transwell membrane. Once confluent, the constructs are added to the apical side of the insert and their transcytosis through the cell monolayer to the basolateral side of the insert is quantified by fluorescence.

Row | Molecule | GCase activity of ProSNA constructs with small molecule activator (GCase ProSNA constructs) | protein activity after functionalization, compared with unmodified GCase (GCase) | protein activity, PEGylated protein versus ProSNA constructs (GCase) | protein activity, univalent versus bivalent constructs (GCase) | also measured
1 | Nc1c(Br)cc(Br)cc1CN[C@H]1CC[C@H](O)CC1 [Ambroxol] | elevation in enzyme activity; also recorded: partial recovery of GCase activity |  |  |  | 
2 | OCCOCCN1CCN(C2=Nc3ccccc3Sc3ccccc32)CC1 [quetiapine] | elevation in enzyme activity; also recorded: partial recovery of GCase activity |  |  |  | activity of the native GCase protein (native GCase protein; 5 μM quetiapine): sufficient to increase the activity of the native protein; activity of the native GCase protein (native GCase protein; 10 μM quetiapine): sufficient to increase the activity of the native protein; presence of α-synuclein protein aggregates [1]: reduce the presence of α-synuclein protein aggregates
3 | B1 |  | functionalization does impact protein activity; also recorded: reduction of overall activity | significant increase in activity | no significant difference between the univalent and bivalent variations; also recorded: no significant difference between the uni- and bivalent constructs | rates of uptake across time points ([2]; different time points): highest at shorter time points; uptake into cells compared to control groups ([2]; neurons (dopaminergic), astrocytes, microglia, flow cytometry): enhance its uptake into all cell types; biodistribution (localization to the brain space) [3]: localize to the brain space in higher concentrations when compared to control groups; rate of transcytosis across the blood-brain barrier [4]: significant increase in the rate of transcytosis across the blood-brain barrier was observed; rate of transcytosis compared to control groups [4]: higher rate of transcytosis when compared to control groups
4 | B2 |  | functionalization does impact protein activity | significant increase in activity | no significant difference between the univalent and bivalent variations; also recorded: no significant difference between the uni- and bivalent constructs | 
5 | B3 |  |  | significant increase in activity when comparing the PEGylated protein to both ProSNA constructs |  | 
